Substitutions are numbered along the chain they refer to.

B1: PR004521 (antibody, human IgG1, kappa, V domains shown)
VH: EVQLVESGGGLVQPGGSLKLSCAASGFTFNTYAMNWVRQASGKGLEWVGRIRSKSNNYATYYADSVKDRFTISRDDSKSTLYLQMNSLKTEDTAVYYCVRGKENGNYYAMDFWGQGTTVTVSS
VL: DIVMTQSPLSLPVTPGEPASISCRSSKSLLHSNGKIYLYWFLQKPGQSPQLLIYRMSNLASGVPDRFSGSGSGTDFTLKISRVEAEDVGVYYCMQHLEYPLTFGQGTKLEIKR
notes: humanized variant of PR004128, IgG1 with DE mutation
B2: PR004526 (antibody, human IgG1, kappa, V domains shown)
VH: B1 VH with K19R, S41P, G49S, K89R, T90A
VL: B1 VL with P15L, E17Q, L42Q, K44R, Q50R
notes: as for B1
B3: PR004524 (antibody, human IgG1, kappa, V domains shown)
VH: B1 VH
VL: B1 VL with K35N, I36T
notes: as for B1
B4: PR004527 (antibody, human IgG1, kappa, V domains shown)
VH: B1 VH
VL: B1 VL with P15L, E17Q, L42Q, K44R, Q50R
notes: as for B1
B5: PR004523 (antibody, human IgG1, kappa, V domains shown)
VH: B1 VH with K19R, S41P, G49S, K89R, T90A
VL: B1 VL with K35N, I36T
notes: as for B1
B6: PR004522 (antibody, human IgG1, kappa, V domains shown)
VH: B1 VH with Q13K, K19R, S41P
VL: B1 VL with K35N, I36T
notes: as for B1
B7: PR004525 (antibody, human IgG1, kappa)
heavy: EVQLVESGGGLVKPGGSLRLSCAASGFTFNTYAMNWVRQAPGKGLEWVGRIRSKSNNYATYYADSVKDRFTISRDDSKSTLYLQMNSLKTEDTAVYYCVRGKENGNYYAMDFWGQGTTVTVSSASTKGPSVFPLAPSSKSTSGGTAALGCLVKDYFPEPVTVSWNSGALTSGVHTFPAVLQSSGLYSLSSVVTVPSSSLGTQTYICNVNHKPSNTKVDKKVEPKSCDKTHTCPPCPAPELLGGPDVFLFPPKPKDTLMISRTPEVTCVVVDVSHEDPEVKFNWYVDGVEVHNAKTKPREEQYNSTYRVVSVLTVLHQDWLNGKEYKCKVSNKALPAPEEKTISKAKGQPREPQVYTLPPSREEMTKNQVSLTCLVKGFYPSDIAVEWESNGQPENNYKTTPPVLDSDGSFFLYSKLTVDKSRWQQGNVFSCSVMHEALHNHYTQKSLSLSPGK
light: DIVMTQSPLSLPVTLGQPASISCRSSKSLLHSNGKIYLYWFQQRPGQSPRLLIYRMSNLASGVPDRFSGSGSGTDFTLKISRVEAEDVGVYYCMQHLEYPLTFGQGTKLEIKRTVAAPSVFIFPPSDEQLKSGTASVVCLLNNFYPREAKVQWKVDNALQSGNSQESVTEQDSKDSTYSLSSTLTLSKADYEKHKVYACEVTHQGLSSPVTKSFNRGEC
notes: as for B1
B8: PR004660 (antibody, human IgG1, kappa, V domains shown)
VH: B1 VH with K19R, N30S, S41P, G49S, K89R, T90A, G105A
VL: B1 VL
notes: PTM site-removed humanized variant of PR004128, IgG1 with DE mutation
B9: PR004667 (antibody, human IgG1, kappa, V domains shown)
VH: B1 VH with Q13K, K19R, N30S, S41P, N104Q
VL: B1 VL with P15L, E17Q, G34A, L42Q, K44R, Q50R
notes: as for B8
B10: PR004662 (antibody, human IgG1, kappa, V domains shown)
VH: B1 VH with K19R, N30S, S41P, G49S, K89R, T90A, G105A
VL: B1 VL with G34A
notes: as for B8
B11: PR004661 (antibody, human IgG1, kappa, V domains shown)
VH: B1 VH with K19R, N30S, S41P, G49S, K89R, T90A, N104Q
VL: B1 VL
notes: as for B8
B12: PR004664 (antibody, human IgG1, kappa, V domains shown)
VH: B1 VH with Q13K, K19R, N30S, S41P, G105A
VL: B1 VL with P15L, E17Q, L42Q, K44R, Q50R
notes: as for B8
B13: PR004663 (antibody, human IgG1, kappa, V domains shown)
VH: B1 VH with K19R, N30S, S41P, G49S, K89R, T90A, N104Q
VL: B1 VL with G34A
notes: as for B8
B14: PR004665 (antibody, human IgG1, kappa, V domains shown)
VH: B1 VH with Q13K, K19R, N30S, S41P, N104Q
VL: B1 VL with P15L, E17Q, L42Q, K44R, Q50R
notes: as for B8

T1 sequence (P51685 whole entry): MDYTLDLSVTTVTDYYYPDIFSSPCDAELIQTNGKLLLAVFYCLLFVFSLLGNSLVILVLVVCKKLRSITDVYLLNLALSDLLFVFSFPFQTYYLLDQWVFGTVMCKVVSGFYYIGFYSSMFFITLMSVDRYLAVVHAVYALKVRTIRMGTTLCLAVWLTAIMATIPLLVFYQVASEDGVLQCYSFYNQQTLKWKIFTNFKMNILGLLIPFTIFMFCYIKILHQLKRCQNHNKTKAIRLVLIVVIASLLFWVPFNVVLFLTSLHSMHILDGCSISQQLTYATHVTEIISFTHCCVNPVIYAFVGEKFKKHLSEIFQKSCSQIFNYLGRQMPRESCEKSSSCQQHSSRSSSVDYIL

The first assay addresses T1, human CCR8 (human, UniProt P51685 1-355).
T1 construct: whole, on cells; construct used for the overexpressing cell lines is not described; also called hCCR8
As to the kind of experiment: FACS, CHO-K1-hCCR8 cells. The protocol:
(§1) Cells overexpressing human CCR8 were digested with pancreatin, counted and resuspended to a cell density of 1E6 cells/mL. The cell suspension was added to a 96-well V-bottom plate at 100 μL/well and centrifuged at 300 g for 5 min, and the supernatant was discarded. The anti-CCR8 antibodies provided herein was used as a primary antibody and diluted in a 5-fold gradient with an FACS buffer (DPBS containing 2% FBS) from 200 nM. The diluted primary antibody was added at 100 μL/well to resuspend the cells, and the mixture was incubated at 4° C. for 1 h. The plate was washed twice with DPBS and centrifuged at 300×g for 5 min, and the supernatant was discarded. The secondary antibody diluted in a 1:1000 ratio with an FACS buffer was added at 100 μL/well to suspend the cells, and the mixture was incubated at 4° C. for 40 min. The plate was washed twice with DPBS and centrifuged at 300×g for 5 min, and the supernatant was discarded. DPBS was added at 200 μL/well to suspend the cells, and the mixture was loaded on an FACS machine for analysis.
(In general: Flow cytometry measures light scatter and fluorescence of single cells or particles in a stream.)
Consider B1, for which the midpoint of the response, the EC50, lay at 0.37 nM.

Take B2: the EC50 (commonly the midpoint of the concentration-response curve) worked out at 1.03 nM.

With B3, the EC50 amounted to 0.17 nM.

For B4, the EC50 amounted to 0.73 nM.

In the case of B5, the EC50 was found to be 1 nM.

B6: it took 1.08 nM to reach a half-maximal effect (EC50).

Consider B7, for which the EC50 is 0.85 nM.

For another assay, the target named is T1, human CCR8. As to the kind of experiment: FACS, CHO-K1-hCCR8 cells. This is another data set of the same source. The protocol: as §1
Consider B8, for which the EC50 worked out at 0.49 nM.

B9 displayed an EC50 of 0.279 nM.

The molecule B10 yielded an EC50 of 0.681 nM.

The molecule B11 had an EC50 of 0.456 nM.

B12 registered an EC50 of 0.365 nM.

In turn, B13 returned an EC50 of 0.286 nM.

Take B14: a half-maximal response (EC50) required 0.341 nM.

The target in a further assay is T2, cynomolgus monkey CCR8 (cynomolgus monkey, UniProt G7NYJ2 1-355).
T2 construct: whole, on cells; also called CynoCCR8
T2 sequence (G7NYJ2 entry or part of it): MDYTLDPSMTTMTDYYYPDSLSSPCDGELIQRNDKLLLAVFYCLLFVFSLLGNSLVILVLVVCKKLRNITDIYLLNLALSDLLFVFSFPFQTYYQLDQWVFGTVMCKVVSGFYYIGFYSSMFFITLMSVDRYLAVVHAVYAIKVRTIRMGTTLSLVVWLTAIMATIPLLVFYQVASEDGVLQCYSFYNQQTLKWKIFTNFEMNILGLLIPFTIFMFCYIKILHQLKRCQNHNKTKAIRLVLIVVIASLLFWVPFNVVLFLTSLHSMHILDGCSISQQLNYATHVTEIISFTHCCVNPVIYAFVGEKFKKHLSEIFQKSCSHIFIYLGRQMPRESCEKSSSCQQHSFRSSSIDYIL
The assay is described as follows: FACS, CHO-K1-CynoCCR8 cells. How it is done: as §1, with “cynomolgus monkey CCR8, CHO-K1-CynoCCR8,” for “human CCR8”
For the molecule B1, a half-maximal response (EC50) required 6.22 nM.

As for B2, the midpoint of the response, the EC50, lay at 4.01 nM.

B3 displayed an EC50 of 4.79 nM.

Regarding B4, the EC50 stood at 7.33 nM.

B5 had an EC50 of 4.42 nM.

In the case of B6, the EC50 is 5.87 nM.

On to B7, for which a half-maximal response (EC50) required 6.21 nM.

The record behind these values is US20240132603A1 (HARBOUR BIOMED US, published 2024).
